Consider one molecule from patent US20160271244A1.

Where only a bound is given, the exact number is not on record here.

This assay concerns the target Env (gp120) of HIV-1 JRCSF.N160K (HIV-1), P20871. The assay can be described thus: cell-based or functional assay.

B1: CH01 (antibody, V domains shown)
VH: EVQLVESGANVVRPGGSLRLSCKASGFIFENFGFSWVRQAPGKGLQWVAGLNWNGGDTRYADSVKGRFRMSRDNSRNFVYLDMDKVGVDDTAFYYCARGTDYTIDDAGIHYQGSGTFWYFDLWGRGTLVSVSS
VL: EIVLTQSPGTLSLSPGERATLSCRASHNVHPKYFAWYQQKPGQSPRLLIYGGSTRAAGIPGKFSGSGSGTDFTLTISRVDPEDFAVYYCQQYGGSPYTFGQGTKVEI
Take B1: the IC50 (virus neutralization) was above 50 µg/mL and the IC80 (virus neutralization) is above 50 µg/mL.
